One block for each binder: values may come before it. No end group written: not given here.
Columns and labels:
[1] = target: T1, human fibrinogen alpha chain (carrier protein in human plasma) (human, UniProt P02671-2 20-629); assay: peptide incubated with normal human plasma, western blot (FIG. 10C)
T1 construct: mature; This is the carrier protein of normal plasma that runs at about 65-70 kDa in reducing SDS-PAGE; also called Uniprot P02671
T1 sequence (looked up): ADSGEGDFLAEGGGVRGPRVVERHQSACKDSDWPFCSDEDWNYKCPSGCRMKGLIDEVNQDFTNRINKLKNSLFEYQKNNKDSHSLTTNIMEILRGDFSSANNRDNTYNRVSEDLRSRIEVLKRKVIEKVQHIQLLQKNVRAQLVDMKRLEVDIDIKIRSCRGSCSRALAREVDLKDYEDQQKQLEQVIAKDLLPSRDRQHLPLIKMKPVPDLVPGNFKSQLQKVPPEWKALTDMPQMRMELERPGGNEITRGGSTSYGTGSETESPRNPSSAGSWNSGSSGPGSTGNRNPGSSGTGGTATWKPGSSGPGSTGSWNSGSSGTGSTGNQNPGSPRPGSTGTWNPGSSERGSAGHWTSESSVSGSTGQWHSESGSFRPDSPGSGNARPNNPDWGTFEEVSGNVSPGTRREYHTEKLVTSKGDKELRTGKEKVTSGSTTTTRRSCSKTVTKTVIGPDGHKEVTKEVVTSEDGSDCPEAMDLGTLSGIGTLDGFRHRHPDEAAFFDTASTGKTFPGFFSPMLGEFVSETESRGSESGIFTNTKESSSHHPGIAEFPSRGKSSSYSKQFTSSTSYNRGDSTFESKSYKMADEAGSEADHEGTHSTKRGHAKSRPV
Method: (§1) Band identity was verified by ponceau S stain followed by Western blot with anti-CIZ1b antibody 043 of a parallel gel (right). B) Gel slices were soaked in 2% SDS-PAGE loading buffer (with 200 mM βME) and separated through a denaturing gel to recover the 043-reactive species at 70 kDa. Note that sample loaded as a gel slice is slightly retardation compared to markers which are loaded in solution. […] C) Western blot of normal human plasma (non-cancer, N) showing reconstitution of CIZ1b epitope via complex formation between a carrier protein in plasma and synthetic CIZ1b peptides of the indicated lengths, but not equivalent CIZ1a peptide (Table 2). Note that free peptides migrate in reducing SDS-PAGE with a relative mobility 3 times expected (˜21 kDa instead of 7.6 kDa for b66, ˜5 kDa instead of 1.6 for b13). None are recognized by CIZ1b antibodies in western blot unless complexed with carrier protein. For CIZ1b66 peptide a new reactive species is created at ˜80 kDa, while CIZ1b13 peptide increases antigenicity at the same mobility as the endogenous epitope in lung cancer plasmas (C, lane 1). D) Western blot of non-reducing SDS-PAGE gel showing purified fibrinogen (6 nmols) in all lanes (upper), with and without prior incubation with 100 pmols of the indicated peptides (Table 2), probed with CIZ1b antibodies as indicated. […]

[2] = target: T1, human fibrinogen alpha chain (carrier …); assay: peptide incubated with normal human plasma, reducing SDS-PAGE, western blot with 2B and 043
Method: as §1

[3] = target: T1, human fibrinogen alpha chain (carrier …); assay: 50 nmols peptide mixed with 0.5 ul non-cancer plasma, western blot
Method: FIG. 3—Ciz1 b-variant ˜65-70 kDa species is a Ciz1 b-variant peptide stably bound to a carrier protein, which may augment antigenicity of Ciz1 b-variant peptide. a) Western blot illustrating cancer-selective epitope recognised by anti-Ciz1 b-variant antibody 2B, as described previously (Higgins et al; as above). b) Reconstitution of a Ciz1 b-variant epitope from synthetic b-variant peptide (50 nmols of […] DFLV—SEQ ID NO: 12) mixed with 0.5 ul of non-cancer plasma. Free peptide migrates with mobility indicative of a MW 3-4× greater than predicted (˜30 kDa instead of 7.6 kDa), indicated by blue arrow. When incubated in plasma mobility decreases, antigenicity increases, and a new species is created at ˜80 kDa, indicated by red arrow. c) Similar results were generated with a separate anti-Ciz1 b-variant monoclonal antibody. d) For reference, a duplicate blot is probed with a monoclonal antibody that is selective for the exon 14a version of the peptide ([…]—SEQ ID NO: 13), showing detection of the peptide in lanes 1 and 3. Key: Lane 1, WT peptide only. Lane 2, B-var peptide only. Lane 3, WT peptide+normal plasma. Lane 4, B-var peptide+normal plasma. Lane 5, normal plasma only. […] F) Western blot showing titration of short peptide ([…]—SEQ ID NO: 2) into cancer patient plasma, detected with anti-Ciz1 b-variant monoclonal antibody (upper) or anti-Ciz1 b-variant polyclonal antibody 043 (lower).

[4] = target: T1, human fibrinogen alpha chain (carrier …); assay: peptide combined with plasma, western blot

binding result [1]: binds
B1: Long CIZ1b peptide (b66) (peptide)
peptide: EIAGQDEDHFITVDAVGCFEGDEEEEEDDEDEEEIEVRSRDISREEWKGSETYSPNTAYGVDFLVP
notes: also called CIZ1b66

binding result [2]: binds
Binder: CDEEEIEVRSRDIS-NH2 (also called CIZ1b13) [Short CIZ1b peptide (b13)]

binding result [3]: binds
B2: Long Ciz1 b-variant peptide (SEQ ID NO: 12) (peptide)
peptide: EIAGQDEDHFITVDAVGCFEGDEEEEEDDEDEEEIEVRSRDISREEWKGSETYSPNTAYGVDFLV
notes: also called synthetic b-variant peptide; B-var peptide

binding result [4]: binds
B3: Short Ciz1 b-variant peptide DEEEIEVRSRDIS (peptide)
peptide: DEEEIEVRSRDIS
notes: also called short b-variant peptide; short peptide
